Source: patent US5789216A, “Cloning and expression of human GMP synthetase, its use in screening for inhibitors of human GMP synthetase and inhibitors of human GMP synthetase” (Syntex (U.S.A.) Inc., priority 1995, dated 1998)
Where two headings read alike, the source gives them in different places.

Columns and labels:
IMP dehydrogenase = details: cited from earlier work
[1] = system: transplant rejection and rheumatoid arthritis; details: recent clinical trials; cited from earlier work
lymphocyte = details: can be blocked by exogenous guanosine; cited from earlier work
[2] = system: GMP synthetase from Ehrlich ascites cells; details: cited from earlier work
[3] = Spectrophotometric-coupled assay of Spector (rate of AMP production; specific activity of enzyme preparations); assay type: biochemical
From the text: The medium will usually be a salt medium such as normal saline, phosphate buffer, or phosphate buffered saline containing additives well known to those skilled in the art and commercially available from a number of suppliers such as GIBCO and Hyclone. The cultured cells are then homogenized under conventional conditions such as, for example, sonication, freeze-thawing, and hypotonic lysis, and the cytosolic fraction is obtained by centrifugation and recovery of the supernatant. Differential salt fractionation, using, for example, ammonium sulfate, is employed to separate the GMP synthetase-richprotein fraction. Salt is then removed by one of a variety of known methods such as gel filtration, dialysis and the like. The desalted protein fraction is then subjected to anion exchange chromatography. […] Fractions showing GMP-synthetase activity are further subjected to hydrophobic interaction chromatography and a second purification via anion exchange chromatography. […] The assay measures the rate of production of AMP by GMP synthetase by coupling it to the oxidation of NADH via the auxiliary enzymes AMP kinase, pyruvate kinase and lactate dehydrogenase.
This assay measured the rate of AMP production by GMP synthetase, and the level of AMP is measured through the activity of three auxiliary enzymes. […] This rate is referred to as background rate.

[4] = partially purified, approximately 50-fold, human fibroblast cells; cited from earlier work
[5] = purified enzyme, repeated purifications or single preparation

COc1c(C)c2c(c(O)c1C/C=C(\C)CCC(=O)O)C(=O)OC2 [mycophenolic acid]
inhibitor of IMP dehydrogenase (IMP dehydrogenase): potent inhibitor | effective in treatment of transplant rejection and rheumatoid arthritis [1]: effective | inhibition of lymphocyte proliferation, correlated with lowering of the intracellular pool of guanine nucleotides (lymphocyte): inhibition of lymphocyte proliferation

O=P(O)(O)OP(=O)(O)O [pyrophosphate]
inhibition of the enzyme by its reaction product [2]: inhibition

human GMP synthetase: purified human GMP synthetase from A3.01 cells, single Coomassie blue-staining band at 75 kDa
specific activity ([3]; Mono Q pool, purified from A3.01 cells): 3.0 μmol AMP/min-mg | specific activity [3, 5]: 2.5-4.0 μmol AMP produced/min/mg

partially purified preparation from human fibroblast cells: GMP synthetase from human fibroblasts, purified approximately 50-fold by ammonium sulfate fractionation and gel filtration
specific activity [4]: 5990 pmoles guanine compound produced/min/mg

recombinant human GMP synthetase: baculoviral expressed human GMP synthetase purified from Sf-9 cells
specific activity [3, 5]: 3.0-4.4 μmol AMP produced/min/mg | specific activity ([3]; purified enzyme, repeated purifications or single preparation, listed as purified protein): 4.4 μmol AMP produced/min/mg
